Reference: publication PMC4190115

Target: His-tagged N-terminal domain (1-165 aa) of matrix protein 1 (M1) of influenza A virus A/WSN/33 (H1N1) (Influenza A virus A/WSN/33 (H1N1)) (UniProt P05777)
Assay: crystal structure

His-tagged N-terminal domain (1-165 aa) of matrix protein 1 (M1) of influenza A virus A/WSN/33 (H1N1) (from UniProt P05777 1-165) (domain or fragment)
stoichiometry N: 2
